Measured values reported in US9777300 (University of California, dated 2017).

T1: E. coli FhuA, outer membrane iron transporter protein (E. coli, UniProt P06971 34-747)
T1 construct: whole, on cells; also called outer membrane iron-transporter (E. coli)
T1 sequence: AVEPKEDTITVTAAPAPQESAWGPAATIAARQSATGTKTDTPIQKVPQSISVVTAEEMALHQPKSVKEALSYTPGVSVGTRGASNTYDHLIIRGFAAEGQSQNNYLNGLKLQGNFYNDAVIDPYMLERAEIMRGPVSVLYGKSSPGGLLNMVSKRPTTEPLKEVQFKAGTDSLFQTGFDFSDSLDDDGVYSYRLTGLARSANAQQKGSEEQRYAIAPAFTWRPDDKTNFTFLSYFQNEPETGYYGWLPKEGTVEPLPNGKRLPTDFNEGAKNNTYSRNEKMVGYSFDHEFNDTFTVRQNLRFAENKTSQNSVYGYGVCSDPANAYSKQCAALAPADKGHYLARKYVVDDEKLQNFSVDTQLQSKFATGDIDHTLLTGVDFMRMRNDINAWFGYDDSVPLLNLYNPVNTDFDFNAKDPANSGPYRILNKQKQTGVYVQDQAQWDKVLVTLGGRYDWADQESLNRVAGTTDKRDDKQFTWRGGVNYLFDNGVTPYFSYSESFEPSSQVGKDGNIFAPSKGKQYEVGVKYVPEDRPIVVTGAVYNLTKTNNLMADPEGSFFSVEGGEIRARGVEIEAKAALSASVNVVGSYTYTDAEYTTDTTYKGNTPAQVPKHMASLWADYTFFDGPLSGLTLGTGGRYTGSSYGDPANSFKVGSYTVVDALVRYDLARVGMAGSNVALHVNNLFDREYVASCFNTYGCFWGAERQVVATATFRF

B1: Bacteriophage T5 protein pb5 expressed in E. coli with a 6x-His tag (ligand)
chain: MSFFAGKLNNKSILSLRRGSGGDTNQHINPDSQTIFHSDMSHVIITETHSTGLRLDQGAGDYYWSEMPSRVTQLHNNDPNRVVLTEIEFSDGSRHMLSGMSMGVGAKAYGIINPQIMSQGGLKTQITASADLSLDVGYFNTGTSGTIPQKLRDGTGCQHMFGAFSGRRGFASSAMYLGGAALYKSAWSGSGYVVADAGTLTIPSDYVRHPGARNFGFNAIYVRGRSCNRVLYGMEGPNYTTGGAVQGASSSGALNFTYNPSNPESPKYSVGFARADPTNYAYWESMGDPNDSANGPIGIYSEHLGIYPSKITWYVTNLVYNGSGYNIDGGLFNGNDIKLSPREFIIKGVNVNNTSWKFINFIEKNFNVGNRADFRDVGCNLSKDSPSTGISGIATFGLPTTESNNAPSIKGGNVGGLHANVVSIYNFLPSASWYVSSNPPKIGNNYGDVWSENLLPLRLLGGSGSTILSGNIVFQGNGSVHVGTVGLDLNSSRNGAIVCTMEFIDDTWLSAGGIGCFNPTEMLSQGAEYGDSRFRIGGNTINKKLHQILSLPAGEYVPFFTIKGTVVNACKLQAAAYNPTPYWVSGLPGSVGQTGYYTLTYYMRNDGNNNISIWLDSSMSNIIGMKACLPNIKLIIQRLT
notes: it is placed C-terminal here only because of the label 'pb5-His'; also called pb5-His; His-pb5; not shown: 6x-His tag
B2: Qdot-pb5 conjugate (CdSe/ZnS quantum dots conjugated to pb5 by carbodiimide coupling) (other)
chain: MSFFAGKLNNKSILSLRRGSGGDTNQHINPDSQTIFHSDMSHVIITETHSTGLRLDQGAGDYYWSEMPSRVTQLHNNDPNRVVLTEIEFSDGSRHMLSGMSMGVGAKAYGIINPQIMSQGGLKTQITASADLSLDVGYFNTGTSGTIPQKLRDGTGCQHMFGAFSGRRGFASSAMYLGGAALYKSAWSGSGYVVADAGTLTIPSDYVRHPGARNFGFNAIYVRGRSCNRVLYGMEGPNYTTGGAVQGASSSGALNFTYNPSNPESPKYSVGFARADPTNYAYWESMGDPNDSANGPIGIYSEHLGIYPSKITWYVTNLVYNGSGYNIDGGLFNGNDIKLSPREFIIKGVNVNNTSWKFINFIEKNFNVGNRADFRDVGCNLSKDSPSTGISGIATFGLPTTESNNAPSIKGGNVGGLHANVVSIYNFLPSASWYVSSNPPKIGNNYGDVWSENLLPLRLLGGSGSTILSGNIVFQGNGSVHVGTVGLDLNSSRNGAIVCTMEFIDDTWLSAGGIGCFNPTEMLSQGAEYGDSRFRIGGNTINKKLHQILSLPAGEYVPFFTIKGTVVNACKLQAAAYNPTPYWVSGLPGSVGQTGYYTLTYYMRNDGNNNISIWLDSSMSNIIGMKACLPNIKLIIQRLT
modifications: CdSe/ZnS quantum dot (Qdot) coupled by carbodiimide (EDC) chemistry; site of coupling and number of pb5 per Qdot not stated
notes: Two colours were used in the pulse labeling (Qdot532-pb5, Qdot602-pb5); the protein part is the same purified His-tagged pb5; also called Qdot-pb5s; Qdot532-pb5; not shown: 6x-His tag of the purified pb5

Legend:
[1] = biological target: T1, E. coli FhuA, outer membrane iron …; test: fluorescence microscopy, live E. coli cells expressing FhuA, 50 nM His-tagged pb5, detected with fluorescent anti-His antibody
[2] = biological target: T1, E. coli FhuA, outer membrane iron …; test: flow cytometry, FhuA on E. coli cells against FhuA on R. eutropha cells (FIG. 14E)
[3] = biological target: T1, E. coli FhuA, outer membrane iron …; test: flow cytometry titration with 2.5 to 20 nM Qdot-pb5, FhuA on R. eutropha cells against FhuA on E. coli cells (FIG. 19)

| Binder | binding result [1] | fold binding efficiency, E. coli cells against R. eutropha cells [2] [fold] | fold lower total binding, R. eutropha cells against E. coli cells [3] [times lower] |
| --- | --- | --- | --- |
| B1 | binds | – | – |
| B2 | – | ~3.4 | ~3.4 |
